These results are taken from patent publication US6958322.

The target of series [1] is purified plasma factor IX (Stago) (UniProt P00740).
For series [2], the system named is recombinant factor X wild type (rFX).
The target in series [3] is corresponding murine coagulation proteins. Description: cell-based or functional assay.
Series [4] has the same target.

UniProt P00740, sequence (P00740 whole entry, looked up): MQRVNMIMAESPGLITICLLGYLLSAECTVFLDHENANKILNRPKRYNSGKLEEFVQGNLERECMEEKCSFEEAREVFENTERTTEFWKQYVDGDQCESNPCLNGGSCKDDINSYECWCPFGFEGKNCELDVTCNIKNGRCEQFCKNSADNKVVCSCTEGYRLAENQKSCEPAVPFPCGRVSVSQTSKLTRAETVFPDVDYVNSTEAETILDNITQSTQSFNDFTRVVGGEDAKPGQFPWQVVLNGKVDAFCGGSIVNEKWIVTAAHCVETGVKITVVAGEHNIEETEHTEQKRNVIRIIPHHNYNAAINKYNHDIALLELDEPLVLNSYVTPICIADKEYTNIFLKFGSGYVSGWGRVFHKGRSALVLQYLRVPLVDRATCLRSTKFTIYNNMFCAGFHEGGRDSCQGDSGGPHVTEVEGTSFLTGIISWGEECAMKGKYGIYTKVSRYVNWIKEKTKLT

On to purified factor XIa, for which the “cleavage / conversion into activated forms, Western blot” value in series [1] was “The conversion of FIX into the activated forms (FIXa and FIXb)”. Moreover, in the series with rFX/FXIa (Q-R/I) analog, the “cleavage / in vitro activation, Western blot” value was “after an incubation time of 1 h at 37 °C in the presence of CaCl2, the reaction batch of FXIa, with rFX/FXIa (Q-R/I) as a substrate, shows protein bands of approximately 36 kD and 32 kD which resemble the activated alpha and beta forms (aHCa and bHCa) of the heavy chain of FX”. Further, in series [2], the “cleavage, Western blot (negative control)” value was “compared to rFX in the absence of FXIa, no change for rFX is visible in the protein pattern after incubation with FXIa”.

B1: rFX/FXIa (Q-R/I) analog, P00742 41-179; P00742 183-488 (enzyme)
light: ANSFLEEMKKGHLERECMEETCSYEEAREVFEDSDKTNEFWNKYKDGDQCETSPCQNQGKCKDGLGEYTCTCLEGFEGKNCELFTRKLCSLDNGDCDQFCHEEQNSVVCSCARGYTLADNGKACIPTGPYPCGKQTLER
heavy: SVAQATSSSGEAPDSITWKPYDAADLDPTENPFDLLDFNQTQPEQSFNDFTRIVGGQECKDGECPWQALLINEENEGFCGGTILSEFYILTAAHCLYQAKRFKVRVGDRNTEQEEGGEAVHEVEVVIKHNRFTKETYDFDIAVLRLKTPITFRMNVAPACLPERDWAESTLMTQKTGIVSGFGRTHEKGRQSTRLKMLEVPYVDRNSCKLSSSFIITQNMFCAGYDTKQEDACQGDSGGPHVTRFKDTYFVTGIVSWGESCARKGKYGIYTKVTAFLKWIDRSMKTRGLPKAKSHAPEVITSSPLK
As for B1, in series [3], the Coagulation Time in sec. (aPTT, FIX-def. mouse plasma + rfX/fXIa(Q-R/I)) turned out to be 48.6 s and the Coagulation Time in sec. (aPTT, FVIII-def. mouse plasma + rfX/fXIa(Q-R/I)) was 52.5 s.

B2: rFX/FXIa (Q-R/I) analog (protein)
chain 1: B1 light
chain 2: B1 heavy
With B2, in series [4], the % Activity in mouse plasma (aPTT, FIX-def. plasma + rfX/fXIa(Q-R/I)) was found to be 166% and the % Activity in mouse plasma (aPTT, FVIII-def. plasma + rfX/fXIa(Q-R/I)) was 97%.
